By koff is commonly meant a measure of how fast the partners let go of each other. The term kon denotes the rate constant with which the complex forms. A high value points to fast association. In general, Kd refers to the equilibrium constant for the complex coming apart. Broadly, the EC50 (read off the curve) is the concentration needed to bring the measured effect to its halfway point. Low values mean a more potent agent, high ones a less potent agent.

Assay [1] has as its target T1, monomeric alpha-synuclein (UniProt P37840 1-140). Nature of the assay: SPR, captured mAb.
The target of assay [2] is T2, alpha-synuclein fibrils (UniProt P37840 1-140). Nature of the assay: SPR, captured mAb.
Assay [3] addresses T2, alpha-synuclein fibrils. Nature of the assay: SPR, captured mAb; alpha-synuclein fibrils. As to the method:
Any non-covalently bound antibodies were removed by three successive regenerations of 10 mM Glycine pH 1.7 (GE Healthcare, 28-9950-84). Immobilization levels were evaluated following ethanolamine capping (Bound) and finally following regeneration (Final). Non-covalent immobilization of alpha-synuclein antibodies was performed using a target immobilization method of 2000 response units (RU). Antibodies were diluted in 10 mM sodium acetate pH 5.5 (GE Healthcare, BR-1003-52) to a final concentration of 5 μg/mL.
Binding affinity of alpha-synuclein antibodies to monomeric or fibrillar alpha-synuclein species was performed using a single-cycle kinetics method. The instrument was primed with 1×HBS-P+ buffer (10× stock from GE Healthcare, BR-1003-52 diluted in Milli-Q water). Injections of monomeric alpha-synuclein (aSyn) (Boston Biochem, SP-485), increasing in concentration from 0.62-50 nM prepared from serial 2-fold dilutions, were performed with contact times of 300 sec/injection at a flow rate of 30 μL/min. A dissociation phase of 900 sec followed the final 50 nM injection. Regeneration of the sensor to the goat anti-mouse antibody layer was achieved using 3 regenerations of 10 mM Glycine pH 1.7. […] Results obtained from single-cycle kinetics were evaluated by Biacore T200 evaluation software with 1:1 binding homogenous Langmuir model (with a global Rmax) with Cycle 5 as a blank subtraction. […]
(In general: In SPR one partner is held on a chip, and binding of the other changes the refractive index at the surface.)

Assay [4] addresses T1, monomeric alpha-synuclein. Nature of the assay: SPR, captured mAb; alpha-synuclein monomers. On the procedure: Non-covalent immobilization of alpha-synuclein antibodies was performed using a target immobilization method of 2000 response units (RU). Antibodies were diluted in 10 mM sodium acetate pH 5.5 (GE Healthcare, BR-1003-52) to a final concentration of 5 μg/mL.
Binding affinity of alpha-synuclein antibodies to monomeric or fibrillar alpha-synuclein species was performed using a single-cycle kinetics method. The instrument was primed with 1×HBS-P+ buffer (10× stock from GE Healthcare, BR-1003-52 diluted in Milli-Q water). Injections of monomeric alpha-synuclein (aSyn) (Boston Biochem, SP-485), increasing in concentration from 0.62-50 nM prepared from serial 2-fold dilutions, were performed with contact times of 300 sec/injection at a flow rate of 30 μL/min. A dissociation phase of 900 sec followed the final 50 nM injection. Regeneration of the sensor to the goat anti-mouse antibody layer was achieved using 3 regenerations of 10 mM Glycine pH 1.7. […] Regeneration of the sensor to the goat anti-mouse antibody layer was achieved using 3 regenerations of 10 mM Glycine pH 1.7. Results obtained from single-cycle kinetics were evaluated by Biacore T200 evaluation software with 1:1 binding homogenous Langmuir model (with a global Rmax) with Cycle 5 as a blank subtraction. […]

In another assay the target is T3, 82-96aa.
T3 construct: also called alpha-synuclein peptide 82-96
T3 peptide: {Biotin-Ahx}-VEGAGSIAAATGFVK
Nature of the assay: indirect ELISA on biotinylated 15-mer peptide.

Assay [5] has as its target T4, 91-105aa.
T4 peptide: {Biotin-Ahx}-ATGFVKKDQLGKNEE
Nature of the assay: indirect ELISA on biotinylated 15-mer peptide. Background: In an ELISA, binding on a coated surface is turned into a signal by an enzyme label.

A further assay has as its target T5, 118-132aa.
T5 peptide: {Biotin-Ahx}-VDPDNEAYEMPSEEG
Nature of the assay: indirect ELISA on biotinylated 15-mer peptide.

The target in the next assay is T6, 127-140aa.
T6 peptide: {Biotin-Ahx}-MPSEEGYQDYEPEA
Nature of the assay: indirect ELISA on biotinylated 15-mer peptide.

The target in assay [6] is T7, 10-24aa.
T7 construct: also called alpha-synuclein peptide 10-24
T7 peptide: {Biotin-Ahx}-KAKEGVVAAAEKTKQ
Nature of the assay: indirect ELISA on biotinylated 15-mer peptide.

In a further assay the target is T8, 46-60aa.
T8 construct: also called alpha-synuclein peptide 46-60
T8 peptide: {Biotin-Ahx}-EGVVHGVATVAEKTK
Nature of the assay: indirect ELISA on biotinylated 15-mer peptide.

Assay [7] deals with T9, 1-14aa.
T9 construct: also called alpha-synuclein peptide 1-14
T9 peptide: MDVFMKGLSKAKEG-biotin
Nature of the assay: indirect ELISA on biotinylated peptide, supernatant 1/100. As to the method:
Serum-free supernatants were harvested from stable hybridomas. The supernatants containing antibodies of interest were then screened by an indirect ELISA assay to determine epitopes. Epitopes were first determined using a library of 15-mer peptides covering the entire sequence of human alpha-synuclein protein, spanning amino acids (aa) 1-140 with 9aa offset and […] overlap. […] Briefly, streptavidin-coated ELISA plates were blocked overnight at 4° C. […] Plates were washed with PBS/0.05% Tween®20 and then incubated with the hybridoma supernatants at 1/100 dilution for 1 hour at 25° C.

For assay [8], the target named is T10, 1-15aa.
T10 construct: also called alpha-synuclein peptide 1-15
T10 peptide: {Biotin-Ahx}-MDVFMKGLSKAKEGV
Nature of the assay: indirect ELISA on biotinylated 15-mer peptide, supernatant 1/100.

A further assay deals with T11, 64-78aa.
T11 construct: also called alpha-synuclein peptide 64-78
T11 peptide: {Biotin-Ahx}-TNVGGAVVTGVTAVA
Nature of the assay: indirect ELISA on biotinylated 15-mer peptide.

Assay [9] addresses human full-length alpha-synuclein (human, UniProt P37840 1-140). Nature of the assay: indirect ELISA on coated full-length alpha-synuclein, O.D. 405 nm.
Method: Antibody binding to human full-length alpha-synuclein was determined using an indirect ELISA. Full-length alpha-synuclein was diluted in carbonate/bicarbonate buffer pH 9.6 (Sigma, C3041) to a final concentration of 2.5pg/ml and coated onto ELISA plates overnight at 4° C. After washing with PBS/0.05% Polyethylene glycol sorbitan monolaurate (Tween®20) and blocking for 1 hour at 37° C. (PBS/0.05% Tween®20/1% BSA), plates were incubated for 2 hours at 37° C. with three-fold dilution series of alpha-synuclein antibodies from 1 μg/mL to 0.0005 μg/mL using PBS/0.05% Tween®20/1% BSA as diluent.
A further assay concerns the target 28-42aa. Nature of the assay: indirect ELISA on biotinylated 15-mer peptide, supernatant 1/100.
In assay [10] the target is T9, 1-14aa. Nature of the assay: indirect ELISA on biotinylated 15-mer peptide.
Assay [11] deals with T10, 1-15aa. Nature of the assay: indirect ELISA on biotinylated 15-mer peptide.
Assay [12] concerns the target T4, 91-105aa. Nature of the assay: indirect ELISA on biotinylated 15-mer peptide, supernatant 1/100.
The next assay deals with alpha-synuclein seeds (UniProt P37840 1-140). Nature of the assay: cell-based or functional assay.
The target in assay [13] is T7, 10-24aa. Nature of the assay: indirect ELISA on biotinylated 15-mer peptide, supernatant 1/100.

Where no end group is shown, it is not given here. The star is where a group is joined. Biotin = O=C1N[C@H]2[C@H](CS[C@H]2CCCCC(=O)*)N1; Ahx = NCCCCCC(=O)O

B1: ACI-8032-6313G2-Ab1 (antibody, V domains shown)
VH: EVQLQQSGPELVKPGASVKISCKASGYTFTDYYMNWVKQSHGKSLEWIGDIDPNNGVTSYSQKFKGKATLTVDKSSSTAYMELRSLTSEDSAVYYCARTGYYGTSLYYAMDYWGQGTSVTVSS
VL: DIVMSQSPSSLAVSAGEKVTMNCKSSQSLLNSRTRKNYLAWYQQKPGQSPKLLIYWASTRESGVPDRFIGSGSGTGFTLTISSVQAEDLAVYYCKQSYDLWTFGGGTKLEIK
notes: mouse hybridoma mAb; VH/VL only; also called 6313G2A10
For the molecule B1, the koff in assay [1] is 0.000541 s⁻¹; with alpha-synuclein fibrils [2] it was 0.000829 s⁻¹. Moreover, the kon is 33500 M⁻¹ s⁻¹ in assay [1] and 338 M⁻¹ s⁻¹ in the assay with alpha-synuclein fibrils [2]. For the same molecule, the Kd in the assay with alpha-synuclein fibrils [3] was determined as 2460 nM; in [4], 16.2 nM.

B2: ACI-7079-2603C1-Ab3 (antibody, V domains shown)
VH: QVQLQQPGADLVKPGASVKLSCKASGYTFTSYWMQWTKQRPGQGLEWIGEIDPSDSYANYNQKFKGKATLTVDKYSSTAYMQLNSLTSEDSAVYYCALYDGPSYWGQGTLVTVS
VL: ENVLTQSPAIMSASPGEKVTMTCSAGSSVSYMHWFQQKSSTSPKLWIYDTSKLPSGVPGRFSGSGSGNSYSLTISSMEAEDVATYYCFQGSGYPYTFGGGTKLEIK
notes: mouse hybridoma mAb; VH/VL only; also called 2603C1H6
As to B2, the binding result with 82-96aa, with 91-105aa [5], with 118-132aa, with 127-140aa, in the assay with 10-24aa [6] and with 46-60aa was “no binding (tested: supernatant 1/100)” in each case. Further, the binding result with 1-14aa [7] and with 1-15aa [8] was “binds” throughout.

B3: ACI-7067-1206E5-Ab1 (antibody, V domains shown)
VH: QVQLQQSGPELVKPGASVKMSCKASGYTFTDYVISWVKQGTGQGLEWIGEIYPGNDSTYYNEKFKGKATLTADKSSNTAYMQLSSLTSEDSAVYFCAREGVSNGYLYLSMDYWGQGTSVTVSS
VL: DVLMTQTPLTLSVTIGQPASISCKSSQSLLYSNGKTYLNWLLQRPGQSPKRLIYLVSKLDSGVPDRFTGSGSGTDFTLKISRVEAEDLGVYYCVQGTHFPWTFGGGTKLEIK
notes: mouse hybridoma mAb; VH/VL only; also called 1206E5D2
Regarding B3, the Kd was 0.4 nM in assay [1] and 8.3 nM in the assay with alpha-synuclein fibrils [2]. The koff in assay [1] was 6.36e-05 s⁻¹; with alpha-synuclein fibrils [2], 0.000405 s⁻¹. In addition, the kon in [1] is 165000 M⁻¹ s⁻¹; in the assay with alpha-synuclein fibrils [2], 57300 M⁻¹ s⁻¹. The binding result is recorded as “no binding (tested: supernatant 1/100)” in the assay with 64-78aa; “no binding (tested: supernatant 1/100)” with 82-96aa; “no binding (tested: supernatant 1/100)” with 118-132aa; “no binding (tested: supernatant 1/100)” in the assay with 127-140aa; “no binding (tested: supernatant 1/100)” in the assay with 46-60aa; “binds” with 28-42aa. Also, the 50% effective concentration (EC50 (read off the curve)) in assay [9] is roughly 0.04 µg/mL.

B4: ACI-7079-2501B11-Ab3 (antibody, V domains shown)
VH: QVQLQQSGPELVKPGASVKISCKASGYAFSSFWMNWMKQRPGKGLEWIGRIYPGDGDAHYNGEFKGRATLTADKSSSTAYMQLSSLTSEDSAVYFCARKGDFYGSNYDYWGQGTTLTVSS
VL: QAVVTQESALTTSPGETVTLTCRSSTGAVTTSNYANWVQEKPDHLFTGLIGGTNNRAPGVPARFSGSLIGDKAALTITGAQTEDEAIYFCALWYSNHLVFGGGTRLTVL
notes: mouse hybridoma mAb; VH/VL only; also called 2501B11C7
For the molecule B4, the binding result with 82-96aa, with 118-132aa, in the assay with 127-140aa, with 1-14aa [10], with 1-15aa [11] and with 10-24aa [6] was “no binding (tested: supernatant 1/100)” throughout. The values for the binding result in the assay with 46-60aa and with 91-105aa [12] were “no binding (tested: supernatant 1/100)” and “binds”, respectively.

B5: ACI-7067-4813-R4A-G7-rec1 (antibody, mouse IgG2a, V domains shown)
VH: EVQLEESGGGLVHPKGSLKLSCAASGFTFNSYAMHWVRQAPGKGLEWVARIRSKRSNYATYYADSVKDRFTISRDDSQSMVYLEMNNLEAEDTATYYCVRGGREAMDFWGQGTSVTVSS
VL: QAVVTQESALTTSPGETVTLTCRSSTGAVTTSNYANWVQEKPDHLFTGLIGGTNNRAPGVPARFSGSLIGDKAALTITGAQTEDEAIYFCALWYSNHWVFGGGTKLTVL
notes: from phage display of immunised mice; positive clones expressed recombinantly as murine IgG2a; VH/VL only; also called ACI-7067-R4A-G7-Ab-1
As for B5, the koff in assay [1] amounted to 0.0737 s⁻¹; with alpha-synuclein fibrils [2], 1.34e-07 s⁻¹. Besides, the kon in assay [1] turned out to be 735000 M⁻¹ s⁻¹; with alpha-synuclein fibrils [2], 4760 M⁻¹ s⁻¹. The Kd with alpha-synuclein fibrils [3] is 0.041 nM; in assay [4], 97 nM.

B6: ACI-7079-2506F3-Ab1 (antibody, V domains shown)
VH: QVQLQQPGAELVKPGASVKLSCKASGYTFTTYWMQWVKQRPGQGLEWIGEIDPSDSYINYNQKFKGKATLTVDTSSSTAFMQLSSLTSEDSAVYYCARGMMDYWGQGTSVTVSS
VL: DVLMTQTPLSLPVSLGDQASISCRSSQSIVHSNGNTYLEWYLQKPGQSPKLLIYKVSNRFSGVPDRFSGSGSGTDFTLKISRVEAEDLGVYYCFKGSHVPYTFGGGTKLEIK
notes: mouse hybridoma mAb; VH/VL only; also called 2506F3E12
Take B6: in the assay with alpha-synuclein seeds, the “aggregation half-time (τ1/2) of seeded alpha-synuclein aggregation, ThT; no antibody 26.9 hours” value was 34.2 h. The binding result with 82-96aa, in the assay with 91-105aa [5], in the assay with 118-132aa, with 127-140aa, with 1-14aa [10] and in the assay with 1-15aa [11] was “no binding (tested: supernatant 1/100)” each time. Further, the values for the binding result in the assay with 46-60aa and with 10-24aa [13] were “no binding (tested: supernatant 1/100)” and “binds”, respectively.

B7: ACI-7079-2606A6-Ab2 (antibody, V domains shown)
VH: QVQLQQSGPELVKPGASVKISCKASGFAFSSSWMNWVKQRPGKGLEWVGRIFPGDGDTNYDRKFKDKATLTADKSSSTAYMQLSSLTSEDSAVYFCARWTGGYDWFAYWGQGTLVTVSA
VL: DIVLTQSPASLAVSLGQRATISCRASQSVSTSNYNYLHWYQQKPGQPPKLLITYASNLESGVPARFSGSGSGTDFTLNIHPVEEGDTATYYCQHSWEIPLTFGAGTKLELK
notes: mouse hybridoma mAb; VH/VL only; also called 2606A6D5
On to B7, for which the binding result in the assay with 82-96aa, with 118-132aa, with 127-140aa, in the assay with 1-14aa [10], in the assay with 1-15aa [11] and in the assay with 10-24aa [6] was “no binding (tested: supernatant 1/100)” throughout. The binding result with 46-60aa is “no binding (tested: supernatant 1/100)”; in the assay with 91-105aa [12], “binds”.
